T1: MeV IC323 F (pre-fusion, on transfected HEK293T cells) (Measles virus strain IC323, UniProt Q786F3 24-550)
T1 construct: whole, on cells; also called pCAGGS-MeV IC323 F; MeV F
T1 sequence: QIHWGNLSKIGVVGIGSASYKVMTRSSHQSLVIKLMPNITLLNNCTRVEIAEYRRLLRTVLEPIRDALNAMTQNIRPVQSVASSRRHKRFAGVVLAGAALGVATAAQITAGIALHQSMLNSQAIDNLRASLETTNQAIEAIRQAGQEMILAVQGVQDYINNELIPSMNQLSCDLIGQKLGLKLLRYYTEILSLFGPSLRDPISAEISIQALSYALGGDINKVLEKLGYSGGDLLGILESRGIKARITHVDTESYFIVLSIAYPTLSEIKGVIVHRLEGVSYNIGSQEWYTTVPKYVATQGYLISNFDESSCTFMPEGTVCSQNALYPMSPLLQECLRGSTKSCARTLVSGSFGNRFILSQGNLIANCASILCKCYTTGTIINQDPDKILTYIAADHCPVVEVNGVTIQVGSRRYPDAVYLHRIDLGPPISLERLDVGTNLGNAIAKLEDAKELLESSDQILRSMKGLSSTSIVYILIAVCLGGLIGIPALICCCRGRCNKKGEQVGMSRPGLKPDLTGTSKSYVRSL


Assays:
[1] = target: T1, MeV IC323 F (pre-fusion, on transfected …); experiment: immunofluorescence of transfected HEK293T cells, Alexa 488 anti 6-histidine antibody
MeV IC323-EGFP = experiment: Viral spread / plaque enlargement assay in Vero-SLAM cells; type: cell-based, measles virus (MeV)
Method: In an effort to identify a more broadly reactive mAb, the neutralizing activity of two other previously identified mAbs, mAb 77.4 and mAb Y503, was assessed in the experiments shown in FIG. 1 I-K. Vero cells expressing the measles receptor SLAM (Vero-SLAM) were infected with MeV IC323-EGFP virus (the expression of fluorescent protein permits tracking of the spread of infection). Six hours post-infection, the cells were treated with serial dilutions of mAbs 77.4 or Y503.
(H-K) VeroSLAM cells were infected with MeV IC323-EGFP at a multiplicity of infection (MOI)=0.001. […] (K) MeV infection in Vero-SLAM cells either untreated (NT) or treated at the indicated dilution of supernatant fluids from hybridomas producing anti F-mAb 77.4 or mAb Y503 were quantified using fluorescent spectroscopy. Data are expressed as relative fluorescence units (RFUs).
The scFv was expressed in eukaryotic cells and purified by affinity purification using a 6×-hisitidine tag (see Materials and Methods). Vero-SLAM cells were infected with MeV IC323-EGFP virus and six hours post-infection, the cells were treated with serial dilutions of the scFv (62.5 μg/ml and 1.95 μg/ml are shown in 3C and CD) and immunofluorescent syncytium formation was measured to quantify viral spread 48 hours post-infection.
Plaque enlargement assay. […] Quantification was determined using fluorescent spectroscopy.

MeV WTFb = experiment: In vivo prophylaxis against MeV infection in cotton rats (scFv, intranasal); parameters: species or system cotton rats (Sigmodon hispidus)
Method: To assess anti-MeV prophylaxis by the scFv in vivo, we used cotton rats (CR) as an infection model. The scFv antibody construct was administrated via intranasal delivery 24 and 12 h before infection. Four days after infection, the animals were euthanized, and the viral titers in the animals' lungs were quantified.
Cotton rats were infected intranasally with 10^5 TCID50/ml of MeV WTFb. Animals received either the indicated amount of mAb 77.4-derived scFv construct (n=4) or vehicle (n=8) 24 h and 12 h prior to infection. Animals were euthanized 5 days after infection. Lungs were collected and homogenized for TCID50 titration. Results are presented as TCID50/g of lung. Statistical analyses were performed using the Mann-Whitney U-test.
In vivo experiments: Cotton rats. Inbred cotton rats (Sigmodon hispidus) were purchased from Envigo, Inc., Indianapolis. Both male and female cotton rats aged 5 to 7 weeks were used. For infection, 10^5 TCID50 of MeV (strain WTFb) was inoculated intranasally to isofluorane-anesthetised cotton rats in a volume of 100 μl. Treatment was performed in the same way at the indicated time points. Four days after infection, the animals were euthanized using CO2 inhalation, and their lungs were collected and weighed. Lung tissue was minced with scissors and homogenized with a glass dounce homogenizer. Vero-SLAM cells were inoculated with serial 10-fold dilutions of supernatant fluids to assess the presence of infectious virus in 48-well plates using cytopathic effect (CPE) as an endpoint. Plates were scored for CPE microscopically after 7 days, and the TCID50 was calculated as described previously^43.

[2] = target: human parainfluenza virus 3 fusion protein (HPIV3 F) (Human parainfluenza 3 virus, UniProt P06828); details: HEK293T, 24 h post-transfection
Method: (§1) To assess the specificity of the scFV derived from mAb 77.4 for MeV F, cells expressing either MeV IC323 F or the human parainfluenza virus 3 fusion protein (HPIV3 F) were incubated with the scFv and subjected to immunofluorescence using a fluorescently-labeled Alexa 488 anti 6-histidine antibody (FIG. 3E-F). […] Finally, we assessed whether the scFv blocked cell-cell fusion mediated by either MeV IC323 or G954 H/F fusion complexes (FIG. 3G). For this experiment we used a beta-galactosidase (β-Gal) complementation assay^18 that measures the fusion of cells that express viral envelope glycoproteins (MeV IC323 or G954 H/F) with cells that express the MeV receptor SLAM (FIG. 3G). HEK293T (“target cells”) were transiently transfected with SLAM and the omega reporter subunit of beta-galactosidase, and incubated for the indicated time period in the presence of different concentrations of inhibitors with “effector cells” co-expressing MeV G954 or IC323 H and F together with the alpha reporter subunit of beta-galactosidase. Fusion between the target and effector cells leads to reconstitution of beta-galactosidase activity, which we quantified using the luminescence-based Galacto-Star™ β-Galactosidase Reporter Gene kit (ThermoFisher, US).
(§2) (A) Sequence of the single-chain variable fragment antibody derived from anti-MeV F mAb 77.4. […] Images were obtained using epifluorescent microscopy 48 h post-infection (scale bar=200 μm). (C) HEK293T cells were transfected with either pCAGGS-HPIV3 F or MeV IC323 F and stained using scFv 24 h post-transfection (scale bar=200 μm). (D) Fusion of MeV G954 or IC323 H/F co-expressing cells with SLAM-bearing cells in the presence of scFv at indicated concentrations was quantified at 6 h using a β-galactosidase complementation assay.

[3] = target: MeV G954 H/F fusion complex (Measles virus, UniProt Q786F3, H419R/Q139R/R70K); details: SLAM-bearing HEK293T target cells, 6 h
Method: as §1, §2

[4] = target: MeV IC323 H/F fusion complex (Measles virus, UniProt Q786F3); details: SLAM-bearing HEK293T target cells, 6 h
Method: as §1, §2

Molecule | binding result [1] | inhibition of viral infection (syncytium formation) (MeV IC323-EGFP; Vero-SLAM, serial dilutions of scFv, 48 hours post-infection) | in vitro potency compared with the full antibody (mAb 77.4) (MeV IC323-EGFP; general statement, assay not specified) | lung infection (MeV WTFb; 0.5 mg/ml intranasal 24 and 12 h before infection) | lung infection (MeV WTFb; 1 mg/ml intranasal 24 and 12 h before infection) | viral titers in the lungs compared with untreated controls (MeV WTFb; intranasal 24 and 12 h before infection, doses 0.25, 0.5 and 1 mg/ml) | recognition of cells expressing HPIV3 F by scFv [2] | inhibition of cell fusion mediated by G954 H/F [3] | inhibition of cell fusion mediated by IC323 H/F [4]
single-chain variable fragment (scFv) derived from anti-MeV F mAb 77.4 (scFv, also called mAb 77.4-derived scFv) scFv: MDVQLQESGPGLVKPSQSLSLTCTVSGYSITSDYAWNWIRQFPGNKLEWMGYISYTLTTGYNPSLKSRISITRDSSKNQFFLQLNSVTTEDTATYYCARSGWLLPYWYFDVWGAGTTVTVSSGGGGSGGGSGGGGSDVQITQSPSYLAASPGETITINCRASKSISKYLAWYQEKPGKTNELLIYSGSTLQSGIPSRFRGSGSGTDFTLTISSLEPEDFAMYYCQQHNEYTLTFGGGTKLELKRHHHHHH | binds |  |  |  |  |  |  |  | 
scFv: single-chain fragment made by fusing VH and VL of mAb 77.4 via G4S linker, 6x-histidine tag; SEQ ID NO:3 (protein, 6x His tag; single-chain variable fragment antibody) scFv: MDVQLQESGPGLVKPSQSLSLTCTVSGYSITSDYAWNWIRQFPGNKLEWMGYISYTLTTGYNPSLKSRISITRDSSKNQFFLQLNSVTTEDTATYYCARSGWLLPYWYFDVWGAGTTVTVSSGGGGSGGGSGGGGSDVQITQSPSYLAASPGETITINCRASKSISKYLAWYQEKPGKTNELLIYSGSTLQSGIPSRFRGSGSGTDFTLTISSLEPEDFAMYYCQQHNEYTLTFGGGTKLELKRHHHHHH |  | clearly inhibited viral infection | less than that of the full antibody | completely inhibited lung infection | completely inhibited lung infection | significantly reduced viral titers in the lungs | not those expressing HPIV3 F | inhibited cell fusion | inhibited cell fusion

— US20240150443A1, “[…] MEASLES VIRUS” (The Trustees of Columbia University in the City of New York, priority 2021, published 2024)
